B1: PLAGL1 (parent)
chain: EKPPSGTKEKKHQCDHCERCFYTR

Variants of: B1
Test: protein stability index of a GFP-peptide fusion (GPS, HEK-293T) (PSI 1-6); higher = more stable
Settings: c terminus: a fixed tail appended
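Also: lentivirally expressed fusions sorted by FACS into six bins by GFP to DsRed ratio, PSI derived from sequencing read proportions per bin multiplied by bin number.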

Row | Variant | protein stability index
1 | EKPPSGTKEKKHQCYHCERCFYTR [D15Y] | 2.97
2 | EKPPSGTKEKKHQCDACERCFYTR [H16A] | 4.15
3 | EKPPSGTKEKKHQCDCCERCFYTR [H16C] | 2.52
4 | EKPPSGTKEKKHQCDDCERCFYTR [H16D] | 4.02
5 | EKPPSGTKEKKHQCDECERCFYTR [H16E] | 4.17
6 | EKPPSGTKEKKHQCDFCERCFYTR [H16F] | 3.5
7 | EKPPSGTKEKKHQCDGCERCFYTR [H16G] | 4.67
8 | EKPPSGTKEKKHQCDICERCFYTR [H16I] | 2.76
9 | EKPPSGTKEKKHQCDKCERCFYTR [H16K] | 4.02
10 | EKPPSGTKEKKHQCDLCERCFYTR [H16L] | 3.51
11 | EKPPSGTKEKKHQCDMCERCFYTR [H16M] | 3.66
12 | EKPPSGTKEKKHQCDNCERCFYTR [H16N] | 4.72
13 | EKPPSGTKEKKHQCDPCERCFYTR [H16P] | 3.94
14 | EKPPSGTKEKKHQCDQCERCFYTR [H16Q] | 3.82
15 | EKPPSGTKEKKHQCDRCERCFYTR [H16R] | 3.49
16 | EKPPSGTKEKKHQCDSCERCFYTR [H16S] | 4.13
17 | EKPPSGTKEKKHQCDTCERCFYTR [H16T] | 3.66
18 | EKPPSGTKEKKHQCDVCERCFYTR [H16V] | 3.08
19 | EKPPSGTKEKKHQCDWCERCFYTR [H16W] | 2.9
20 | EKPPSGTKEKKHQCDYCERCFYTR [H16Y] | 2.59
21 | EKPPSGTKEKKHQCDHAERCFYTR [C17A] | 3.71
22 | EKPPSGTKEKKHQCDHDERCFYTR [C17D] | 3.97
23 | EKPPSGTKEKKHQCDHEERCFYTR [C17E] | 3.69
24 | EKPPSGTKEKKHQCDHFERCFYTR [C17F] | 3.4

Row | Variant | protein stability index
25 | EKPPSGTKEKKHQCDHGERCFYTR [C17G] | 3.43
26 | EKPPSGTKEKKHQCDHHERCFYTR [C17H] | 3.67
27 | EKPPSGTKEKKHQCDHIERCFYTR [C17I] | 3.49
28 | EKPPSGTKEKKHQCDHKERCFYTR [C17K] | 4.07
29 | EKPPSGTKEKKHQCDHLERCFYTR [C17L] | 4
30 | EKPPSGTKEKKHQCDHMERCFYTR [C17M] | 3.63
31 | EKPPSGTKEKKHQCDHNERCFYTR [C17N] | 3.76
32 | EKPPSGTKEKKHQCDHPERCFYTR [C17P] | 4.33
33 | EKPPSGTKEKKHQCDHQERCFYTR [C17Q] | 3.9
34 | EKPPSGTKEKKHQCDHRERCFYTR [C17R] | 3.15
35 | EKPPSGTKEKKHQCDHSERCFYTR [C17S] | 3.63
36 | EKPPSGTKEKKHQCDHTERCFYTR [C17T] | 3.48
37 | EKPPSGTKEKKHQCDHVERCFYTR [C17V] | 4.05
38 | EKPPSGTKEKKHQCDHWERCFYTR [C17W] | 3.13
39 | EKPPSGTKEKKHQCDHYERCFYTR [C17Y] | 3.15
40 | EKPPSGTKEKKHQCDHCARCFYTR [E18A] | 3.18
41 | EKPPSGTKEKKHQCDHCCRCFYTR [E18C] | 2.69
42 | EKPPSGTKEKKHQCDHCDRCFYTR [E18D] | 3.12
43 | EKPPSGTKEKKHQCDHCFRCFYTR [E18F] | 2.61
44 | EKPPSGTKEKKHQCDHCGRCFYTR [E18G] | 3.22
45 | EKPPSGTKEKKHQCDHCHRCFYTR [E18H] | 3.33
46 | EKPPSGTKEKKHQCDHCIRCFYTR [E18I] | 2.63
47 | EKPPSGTKEKKHQCDHCKRCFYTR [E18K] | 2.58
48 | EKPPSGTKEKKHQCDHCLRCFYTR [E18L] | 2.87

Row | Variant | protein stability index
49 | EKPPSGTKEKKHQCDHCMRCFYTR [E18M] | 2.6
50 | EKPPSGTKEKKHQCDHCNRCFYTR [E18N] | 2.94
51 | EKPPSGTKEKKHQCDHCPRCFYTR [E18P] | 4.7
52 | EKPPSGTKEKKHQCDHCQRCFYTR [E18Q] | 2.45
53 | EKPPSGTKEKKHQCDHCRRCFYTR [E18R] | 2.79
54 | EKPPSGTKEKKHQCDHCSRCFYTR [E18S] | 2.42
55 | EKPPSGTKEKKHQCDHCTRCFYTR [E18T] | 3.62
56 | EKPPSGTKEKKHQCDHCVRCFYTR [E18V] | 4.66
57 | EKPPSGTKEKKHQCDHCWRCFYTR [E18W] | 3.41
58 | EKPPSGTKEKKHQCDHCYRCFYTR [E18Y] | 2.92
59 | EKPPSGTKEKKHQCDHCEACFYTR [R19A] | 4.31
60 | EKPPSGTKEKKHQCDHCECCFYTR [R19C] | 3.3
61 | EKPPSGTKEKKHQCDHCEDCFYTR [R19D] | 4.91
62 | EKPPSGTKEKKHQCDHCEECFYTR [R19E] | 4.54
63 | EKPPSGTKEKKHQCDHCEFCFYTR [R19F] | 3.69
64 | EKPPSGTKEKKHQCDHCEGCFYTR [R19G] | 3.24
65 | EKPPSGTKEKKHQCDHCEHCFYTR [R19H] | 4.21
66 | EKPPSGTKEKKHQCDHCEICFYTR [R19I] | 3.52
67 | EKPPSGTKEKKHQCDHCEKCFYTR [R19K] | 4
68 | EKPPSGTKEKKHQCDHCELCFYTR [R19L] | 3.45
69 | EKPPSGTKEKKHQCDHCEMCFYTR [R19M] | 3.83
70 | EKPPSGTKEKKHQCDHCENCFYTR [R19N] | 4.36
71 | EKPPSGTKEKKHQCDHCEPCFYTR [R19P] | 3.3
72 | EKPPSGTKEKKHQCDHCEQCFYTR [R19Q] | 4.34

Row | Variant | protein stability index
73 | EKPPSGTKEKKHQCDHCESCFYTR [R19S] | 3.9
74 | EKPPSGTKEKKHQCDHCETCFYTR [R19T] | 3.52
75 | EKPPSGTKEKKHQCDHCEVCFYTR [R19V] | 3.39
76 | EKPPSGTKEKKHQCDHCEWCFYTR [R19W] | 3.29
77 | EKPPSGTKEKKHQCDHCEYCFYTR [R19Y] | 3.79
78 | EKPPSGTKEKKHQCDHCERAFYTR [C20A] | 2.48
79 | EKPPSGTKEKKHQCDHCERDFYTR [C20D] | 2.59
80 | EKPPSGTKEKKHQCDHCEREFYTR [C20E] | 3.37
81 | EKPPSGTKEKKHQCDHCERFFYTR [C20F] | 2.56
82 | EKPPSGTKEKKHQCDHCERGFYTR [C20G] | 2.5
83 | EKPPSGTKEKKHQCDHCERHFYTR [C20H] | 2.58
84 | EKPPSGTKEKKHQCDHCERIFYTR [C20I] | 2.68
85 | EKPPSGTKEKKHQCDHCERKFYTR [C20K] | 3.58
86 | EKPPSGTKEKKHQCDHCERLFYTR [C20L] | 2.95
87 | EKPPSGTKEKKHQCDHCERMFYTR [C20M] | 2.23
88 | EKPPSGTKEKKHQCDHCERNFYTR [C20N] | 2.6
89 | EKPPSGTKEKKHQCDHCERPFYTR [C20P] | 3.07
90 | EKPPSGTKEKKHQCDHCERQFYTR [C20Q] | 2.37
91 | EKPPSGTKEKKHQCDHCERRFYTR [C20R] | 1.98
92 | EKPPSGTKEKKHQCDHCERSFYTR [C20S] | 1.74
93 | EKPPSGTKEKKHQCDHCERTFYTR [C20T] | 3.04
94 | EKPPSGTKEKKHQCDHCERVFYTR [C20V] | 3.06

Source: the supplement of paper PMC10567573
